Measurements as given in patent publication US20140161804A1 (AbbVie / Abbott, published 2014).
Positions count from the first letter of the chain named. Blank lines part the entries; values can stand above or below the binder they belong to.

Molecular target: T1, Human IL-17A (human, UniProt Q16552 20-155, limits assumed)
T1 construct: Biotinylated in the ELISAs; purified recombinant protein in SPR; also called hIL17A; hIL-17
Assay: ELISA, captured DVD-Ig, biotin-human IL-17 titrated
Description: The following protocol is used to characterize the binding of TNF/IL-17 DVD-Ig proteins to human TNF and IL-17 by enzyme-linked immunosorbent assay (ELISA). An ELISA plate was coated with 50 μl per well of goat anti mouse IgG-Fc at 2 μg/ml, overnight at 4° C. The plate was washed 3 times with PBS/Tween. 50 μl Mab diluted to 1 μg/ml in PBS/0.1% BSA was added to appropriate wells and incubated for 1 hour at room temperature (RT). The plate was washed 3 times with PBS/Tween. 50 μl of serial diluted biotin-human TNF or IL-17 was added to appropriate wells and incubated for 1 hour at RT. The plate was washed 3 times with PBS/Tween. 50 μl of streptavidin-HRP diluted 1:10,000 in PBS/0.1% BSA was added to appropriate wells and incubated for 1 hour at RT. The plate was washed 3 times with PBS/Tween. 50 μl of TMB was added to appropriate wells and the reaction allowed to proceed for 1 minute. The reaction was stopped with 50 μl/well 2N H₂SO₄ and the absorbance read at 450 nm.

T1 sequence (Q16552 20-155 limits assumed): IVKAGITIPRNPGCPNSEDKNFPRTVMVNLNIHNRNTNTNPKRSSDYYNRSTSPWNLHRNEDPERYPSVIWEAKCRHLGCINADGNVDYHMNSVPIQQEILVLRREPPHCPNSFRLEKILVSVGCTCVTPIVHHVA

B2: hMAK199-10-h10F7-M10.8 DVD-Ig (bispecific antibody, human IgG1, kappa, L234A L235A)
heavy: not shown
light: DIQMTQSPSSLSASVGDRVTITCRASQDISNFLNWYQQKPGKAPKLLIYYTSRLQSGVPSRFSGSGSGTDYTLTISSLQPEDFATYFCQQGNTQPPTFGQGTKLEIKRGGSGGGGSGDIQMTQSPSSLSASVGDRVTITCSASSGSISYIDWFQQKPGKAPKRLIYATFELASGVPSRFSGSGSGTDFTLTISSLQPEDFATYYCHQLGSYPDTFGQGTKLEIKRTVAAPSVFIFPPSDEQLKSGTASVVCLLNNFYPREAKVQWKVDNALQSGNSQESVTEQDSKDSTYSLSSTLTLSKADYEKHKVYACEVTHQGLSSPVTKSFNRGEC
notes: DVD-Ig; IgG1 234,235 mut, kappa; GS10 linkers; also called HMAK199-10-GS10-H10F7-M10 DVD
EC50: 0.079 nM

B3: hMAK199-6-h10F7-M10.8 DVD-Ig (bispecific antibody, human IgG1, kappa, L234A L235A)
heavy: not shown
light: B2 light with S30Y, N31D, F32V, T51A, Y71F, F87Y, N92I, Q94L
notes: DVD-Ig; IgG1 234,235 mut, kappa; GS10 linkers; also called HMAK199-6-GS10-H10F7-M10 DVD
EC50: 0.163 nM

B4: hMAK199-10-h10F7-M11.8 DVD-Ig (bispecific antibody, human IgG1, kappa, L234A L235A)
heavy: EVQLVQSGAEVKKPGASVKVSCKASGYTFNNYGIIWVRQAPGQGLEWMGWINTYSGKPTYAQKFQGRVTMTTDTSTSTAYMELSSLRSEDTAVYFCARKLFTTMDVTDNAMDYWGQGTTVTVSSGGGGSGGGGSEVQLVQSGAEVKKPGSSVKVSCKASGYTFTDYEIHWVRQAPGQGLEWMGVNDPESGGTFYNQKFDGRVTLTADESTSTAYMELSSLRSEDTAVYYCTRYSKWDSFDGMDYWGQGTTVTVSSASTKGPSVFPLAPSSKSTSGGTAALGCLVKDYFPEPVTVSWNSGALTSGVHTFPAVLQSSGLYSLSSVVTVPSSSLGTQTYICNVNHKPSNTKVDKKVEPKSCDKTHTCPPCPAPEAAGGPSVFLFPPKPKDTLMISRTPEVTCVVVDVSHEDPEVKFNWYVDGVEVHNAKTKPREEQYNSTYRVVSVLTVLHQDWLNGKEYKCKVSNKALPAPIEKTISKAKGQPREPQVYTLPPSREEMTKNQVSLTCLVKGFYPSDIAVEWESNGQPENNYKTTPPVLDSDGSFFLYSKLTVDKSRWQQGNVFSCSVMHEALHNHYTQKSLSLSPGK
light: B2 light with S141R, S146I, E170D, F188Y, H206R, L208V, D213E
notes: DVD-Ig; IgG1 234,235 mut, kappa; GS10 linkers; also called HMAK199-10-GS10-H10F7-M11 DVD
EC50: 0.133 nM

B5: h10F7-M11-hMAk199-4.4 DVD-Ig wt (bispecific antibody, human IgG1, kappa)
heavy: not shown
light: DIQMTQSPSSLSASVGDRVTITCRASSGIISYIDWFQQKPGKAPKRLIYATFDLASGVPSRFSGSGSGTDYTLTISSLQPEDFATYYCRQVGSYPETFGQGTKLEIKRTVAAPDIQMTQSPSSLSASVGDRVTITCRASQDIENYLNWYQQKPGKAPKLLIYYTSRLQSGVPSRFSGSGSGTDFTLTISSLQPEDFATYFCQQGNTQPPTFGQGTKLEIKRTVAAPSVFIFPPSDEQLKSGTASVVCLLNNFYPREAKVQWKVDNALQSGNSQESVTEQDSKDSTYSLSSTLTLSKADYEKHKVYACEVTHQGLSSPVTKSFNRGEC
notes: DVD-Ig, IL-17 outer / TNF inner domain; wild-type IgG1, kappa; short linkers
EC50: 0.04 nM

B7: hMAK195-24-h10F7-M11.4 DVD-Ig wt (bispecific antibody, human IgG1, kappa)
heavy: not shown
light: DIQMTQSPSSLSASVGDRVTITCKASQLVSSAVAWYQQKPGKAPKLLIYWASTLHTGVPSRFSGSGSGTDFTLTISSLQPEDFATYYCQQHYRTPFTFGQGTKLEIKRTVAAPDIQMTQSPSSLSASVGDRVTITCRASSGIISYIDWFQQKPGKAPKRLIYATFDLASGVPSRFSGSGSGTDYTLTISSLQPEDFATYYCRQVGSYPETFGQGTKLEIKRTVAAPSVFIFPPSDEQLKSGTASVVCLLNNFYPREAKVQWKVDNALQSGNSQESVTEQDSKDSTYSLSSTLTLSKADYEKHKVYACEVTHQGLSSPVTKSFNRGEC
notes: DVD-Ig; wild-type IgG1 (CG1 Z NONA), kappa; short (SS) linkers ASTKGP / TVAAP; also called HMAK195-24-SS-H10F7-M11 DVD
EC50: > 0.5 nM

B9: hMAK195-21-h10F7-A11.8 DVD-Ig (bispecific antibody, human IgG1, kappa, L234A L235A)
heavy: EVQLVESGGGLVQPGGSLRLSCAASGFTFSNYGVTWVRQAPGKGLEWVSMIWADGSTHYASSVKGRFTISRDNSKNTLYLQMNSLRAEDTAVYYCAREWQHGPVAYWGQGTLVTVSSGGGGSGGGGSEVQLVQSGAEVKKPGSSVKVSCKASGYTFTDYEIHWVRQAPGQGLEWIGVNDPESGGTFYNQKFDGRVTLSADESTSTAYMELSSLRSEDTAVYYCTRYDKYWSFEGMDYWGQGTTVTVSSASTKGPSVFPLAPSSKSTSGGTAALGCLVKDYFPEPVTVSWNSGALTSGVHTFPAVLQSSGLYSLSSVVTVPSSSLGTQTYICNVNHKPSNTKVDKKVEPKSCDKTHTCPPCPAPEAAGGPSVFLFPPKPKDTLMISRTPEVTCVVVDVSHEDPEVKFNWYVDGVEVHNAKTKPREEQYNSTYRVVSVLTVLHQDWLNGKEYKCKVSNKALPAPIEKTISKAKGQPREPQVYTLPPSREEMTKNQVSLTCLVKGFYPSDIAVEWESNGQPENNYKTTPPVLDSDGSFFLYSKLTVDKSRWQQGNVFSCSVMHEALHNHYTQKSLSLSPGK
light: DIQMTQSPSSLSASVGDRVTITCRASQLVSSAVAWYQQKPGKAPKLLIYWASARHTGVPSRFSGSGSGTDFTLTISSLQPEDFATYYCQQHYKTPFTFGQGTKLEIKRGGSGGGGSGDIQMTQSPSSLSASVGDRVTITCRASSGIISYIDWFQQKPGKAPKRLIYATFDLASGVPSRFSGSGSGTDYTLTISSLQPEDFATYYCRQVGSYPETFGQGTKLEIKRTVAAPSVFIFPPSDEQLKSGTASVVCLLNNFYPREAKVQWKVDNALQSGNSQESVTEQDSKDSTYSLSSTLTLSKADYEKHKVYACEVTHQGLSSPVTKSFNRGEC
notes: DVD-Ig; IgG1 234,235 mut, kappa; GS10 linkers; light chain shared with the M11 DVD-Ig; also called hMAK195-21-GS10-A11 DVD
EC50: 0.3 nM

B10: hMAK195-24-h10F7-A16.8 DVD-Ig (bispecific antibody, human IgG1, kappa, L234A L235A)
heavy: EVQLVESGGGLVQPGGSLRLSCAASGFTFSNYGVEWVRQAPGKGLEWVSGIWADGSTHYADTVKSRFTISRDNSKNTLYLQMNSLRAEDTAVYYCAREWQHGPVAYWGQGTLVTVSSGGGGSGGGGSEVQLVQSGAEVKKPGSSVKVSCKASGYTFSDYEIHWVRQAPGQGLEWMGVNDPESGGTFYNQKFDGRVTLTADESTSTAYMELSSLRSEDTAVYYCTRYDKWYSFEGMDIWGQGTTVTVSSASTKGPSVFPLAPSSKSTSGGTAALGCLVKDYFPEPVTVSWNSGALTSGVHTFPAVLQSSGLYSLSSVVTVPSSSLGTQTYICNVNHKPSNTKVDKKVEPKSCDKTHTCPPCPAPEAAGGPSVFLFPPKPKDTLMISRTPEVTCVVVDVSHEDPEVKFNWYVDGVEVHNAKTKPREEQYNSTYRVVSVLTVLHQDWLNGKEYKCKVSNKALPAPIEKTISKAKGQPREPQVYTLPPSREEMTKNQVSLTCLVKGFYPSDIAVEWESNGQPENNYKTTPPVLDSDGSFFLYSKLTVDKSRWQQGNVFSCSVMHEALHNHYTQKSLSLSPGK
light: B9 light with R24K, A53T, R54L, K93R, R141S, S144Q, I147R, A160S, S210N, E213G
notes: DVD-Ig; IgG1 234,235 mut, kappa; GS10 linkers; light chain shared with the A6 DVD-Ig; also called hMAK195-24-GS10-A16 DVD
EC50: 0.093 nM

B15: hMAK195-21-h10F7-M10.8 DVD-Ig (bispecific antibody, human IgG1, kappa, L234A L235A)
heavy: not shown
light: B9 light with R141S, I146S, D170E, Y188F, R206H, V208L, E213D
notes: DVD-Ig; IgG1 234,235 mut, kappa; GS10 linkers; also called hMAK195-21-GS10-M10 DVD
EC50: 0.1 nM

B16: hMAK195-24-h10F7-M10.8 DVD-Ig (bispecific antibody, human IgG1, kappa, L234A L235A)
heavy: not shown
light: DIQMTQSPSSLSASVGDRVTITCKASQLVSSAVAWYQQKPGKAPKLLIYWASTLHTGVPSRFSGSGSGTDFTLTISSLQPEDFATYYCQQHYRTPFTFGQGTKLEIKRGGSGGGGSGDIQMTQSPSSLSASVGDRVTITCSASSGSISYIDWFQQKPGKAPKRLIYATFELASGVPSRFSGSGSGTDFTLTISSLQPEDFATYYCHQLGSYPDTFGQGTKLEIKRTVAAPSVFIFPPSDEQLKSGTASVVCLLNNFYPREAKVQWKVDNALQSGNSQESVTEQDSKDSTYSLSSTLTLSKADYEKHKVYACEVTHQGLSSPVTKSFNRGEC
notes: DVD-Ig; IgG1 234,235 mut, kappa; GS10 linkers; also called hMAK195-24-GS10-M10 DVD
EC50: 0.1 nM

B17: hMAK195-21-h10F7-B13.8 DVD-Ig (bispecific antibody, human IgG1, kappa, L234A L235A)
heavy: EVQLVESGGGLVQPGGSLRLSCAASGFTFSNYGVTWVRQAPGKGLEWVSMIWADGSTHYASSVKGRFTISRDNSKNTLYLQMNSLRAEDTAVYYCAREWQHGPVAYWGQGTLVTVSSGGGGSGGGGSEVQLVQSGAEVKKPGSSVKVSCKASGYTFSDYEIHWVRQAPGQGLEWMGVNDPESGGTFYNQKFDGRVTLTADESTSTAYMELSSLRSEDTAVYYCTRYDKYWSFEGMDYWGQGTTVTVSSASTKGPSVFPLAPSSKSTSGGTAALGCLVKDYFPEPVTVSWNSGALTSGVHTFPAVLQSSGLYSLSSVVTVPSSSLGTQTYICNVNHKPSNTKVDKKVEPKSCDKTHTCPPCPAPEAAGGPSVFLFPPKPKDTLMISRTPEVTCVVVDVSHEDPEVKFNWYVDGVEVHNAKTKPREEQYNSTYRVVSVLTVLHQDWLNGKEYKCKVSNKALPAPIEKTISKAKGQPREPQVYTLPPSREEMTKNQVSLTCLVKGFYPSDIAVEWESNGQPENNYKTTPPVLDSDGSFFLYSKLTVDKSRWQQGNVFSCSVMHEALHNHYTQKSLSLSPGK
light: B9 light
notes: DVD-Ig; IgG1 234,235 mut, kappa; GS10 linkers; light chain shared with the M11 DVD-Ig; also called hMAK195-21-GS10-B13 DVD
EC50: 0.2 nM

B18: hMAK195-21-h10F7-B20.8 DVD-Ig (bispecific antibody, human IgG1, kappa, L234A L235A)
heavy: not shown
light: B9 light
notes: DVD-Ig; IgG1 234,235 mut, kappa; GS10 linkers; light chain shared with the M11 DVD-Ig; also called hMAK195-21-GS10-B20 DVD
EC50: 0.242 nM

Continued, values first:

EC50: > 0.5 nM
B1: hMAK199-4-h10F7-M11.4 DVD-Ig wt (bispecific antibody, human IgG1, kappa)
heavy: not shown
light: DIQMTQSPSSLSASVGDRVTITCRASQDIENYLNWYQQKPGKAPKLLIYYTSRLQSGVPSRFSGSGSGTDFTLTISSLQPEDFATYFCQQGNTQPPTFGQGTKLEIKRTVAAPDIQMTQSPSSLSASVGDRVTITCRASSGIISYIDWFQQKPGKAPKRLIYATFDLASGVPSRFSGSGSGTDYTLTISSLQPEDFATYYCRQVGSYPETFGQGTKLEIKRTVAAPSVFIFPPSDEQLKSGTASVVCLLNNFYPREAKVQWKVDNALQSGNSQESVTEQDSKDSTYSLSSTLTLSKADYEKHKVYACEVTHQGLSSPVTKSFNRGEC
notes: DVD-Ig; wild-type IgG1 (CG1 Z NONA), kappa; short (SS) linkers; also called HMAK199-4-SS-H10F7-M11 DVD

EC50: 0.05 nM
B6: h10F7-M11-hMAK199-4.8 DVD-Ig wt (bispecific antibody, human IgG1, kappa)
heavy: not shown
light: DIQMTQSPSSLSASVGDRVTITCRASSGIISYIDWFQQKPGKAPKRLIYATFDLASGVPSRFSGSGSGTDYTLTISSLQPEDFATYYCRQVGSYPETFGQGTKLEIKRGGSGGGGSGDIQMTQSPSSLSASVGDRVTITCRASQDIENYLNWYQQKPGKAPKLLIYYTSRLQSGVPSRFSGSGSGTDFTLTISSLQPEDFATYFCQQGNTQPPTFGQGTKLEIKRTVAAPSVFIFPPSDEQLKSGTASVVCLLNNFYPREAKVQWKVDNALQSGNSQESVTEQDSKDSTYSLSSTLTLSKADYEKHKVYACEVTHQGLSSPVTKSFNRGEC
notes: DVD-Ig, IL-17 outer / TNF inner domain; wild-type IgG1, kappa; GS10 linkers

EC50: 0.104 nM
B8: hMAK199-6-h10F7-M11.8 DVD-Ig (bispecific antibody, human IgG1, kappa, L234A L235A)
heavy: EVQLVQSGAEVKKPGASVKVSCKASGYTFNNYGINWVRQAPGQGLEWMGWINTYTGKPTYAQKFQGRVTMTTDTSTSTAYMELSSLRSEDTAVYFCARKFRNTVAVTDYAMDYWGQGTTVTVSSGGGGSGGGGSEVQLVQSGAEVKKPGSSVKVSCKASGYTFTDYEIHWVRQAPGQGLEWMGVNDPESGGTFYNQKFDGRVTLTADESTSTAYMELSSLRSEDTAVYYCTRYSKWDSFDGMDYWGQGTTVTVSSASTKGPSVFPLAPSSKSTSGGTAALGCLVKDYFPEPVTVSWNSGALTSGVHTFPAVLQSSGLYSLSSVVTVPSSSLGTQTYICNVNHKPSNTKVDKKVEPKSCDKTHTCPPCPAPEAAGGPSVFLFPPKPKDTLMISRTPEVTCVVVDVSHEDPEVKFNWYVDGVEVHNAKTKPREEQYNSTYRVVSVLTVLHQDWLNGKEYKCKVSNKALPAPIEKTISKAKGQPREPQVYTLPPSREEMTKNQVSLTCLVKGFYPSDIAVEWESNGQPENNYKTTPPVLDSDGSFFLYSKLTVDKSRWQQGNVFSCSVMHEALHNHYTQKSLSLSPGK
light: DIQMTQSPSSLSASVGDRVTITCRASQDIYDVLNWYQQKPGKAPKLLIYYASRLQSGVPSRFSGSGSGTDFTLTISSLQPEDFATYYCQQGITLPPTFGQGTKLEIKRGGSGGGGSGDIQMTQSPSSLSASVGDRVTITCRASSGIISYIDWFQQKPGKAPKRLIYATFDLASGVPSRFSGSGSGTDYTLTISSLQPEDFATYYCRQVGSYPETFGQGTKLEIKRTVAAPSVFIFPPSDEQLKSGTASVVCLLNNFYPREAKVQWKVDNALQSGNSQESVTEQDSKDSTYSLSSTLTLSKADYEKHKVYACEVTHQGLSSPVTKSFNRGEC
notes: DVD-Ig; IgG1 234,235 mut, kappa; GS10 linkers; also called HMAK199-6-GS10-H10F7-M11 DVD

EC50: 0.23 nM
B11: hMAK195-21-h10F7-A16.8 DVD-Ig (bispecific antibody, human IgG1, kappa, L234A L235A)
heavy: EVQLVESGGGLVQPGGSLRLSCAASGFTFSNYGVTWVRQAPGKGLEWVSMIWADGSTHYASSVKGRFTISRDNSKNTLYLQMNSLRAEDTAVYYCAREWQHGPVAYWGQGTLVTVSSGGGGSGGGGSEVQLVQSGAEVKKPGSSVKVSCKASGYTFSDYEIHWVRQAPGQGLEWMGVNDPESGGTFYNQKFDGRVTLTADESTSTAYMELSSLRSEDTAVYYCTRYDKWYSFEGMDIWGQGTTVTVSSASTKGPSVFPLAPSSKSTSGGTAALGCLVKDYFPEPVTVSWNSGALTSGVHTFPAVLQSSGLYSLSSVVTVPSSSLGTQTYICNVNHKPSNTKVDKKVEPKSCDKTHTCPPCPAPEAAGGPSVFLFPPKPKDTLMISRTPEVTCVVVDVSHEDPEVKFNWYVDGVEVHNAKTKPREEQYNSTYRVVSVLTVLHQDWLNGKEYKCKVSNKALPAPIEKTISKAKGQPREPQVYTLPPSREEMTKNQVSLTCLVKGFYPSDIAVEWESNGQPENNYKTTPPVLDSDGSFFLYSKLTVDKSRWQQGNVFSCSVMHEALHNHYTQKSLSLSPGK
light: B9 light with R141S, S144Q, I147R, A160S, S210N, E213G
notes: DVD-Ig; IgG1 234,235 mut, kappa; GS10 linkers; light chain shared with the A6 DVD-Ig; also called ShMAK195-21-h10F7-A16.8 DVD-Ig; hMAK195-21-GS10-A16 DVD

EC50: 0.13 nM
B12: hMAK195-21-h10F7-A6.8 DVD-Ig (bispecific antibody, human IgG1, kappa, L234A L235A)
heavy: not shown
light: B9 light with R141S, S144Q, I147R, A160S, S210N, E213G
notes: DVD-Ig; IgG1 234,235 mut, kappa; GS10 linkers; also called hMAK195-21-GS10-A6 DVD

EC50: 0.295 nM
B13: hMAK195-24-h10F7-A11.8 DVD-Ig (bispecific antibody, human IgG1, kappa, L234A L235A)
heavy: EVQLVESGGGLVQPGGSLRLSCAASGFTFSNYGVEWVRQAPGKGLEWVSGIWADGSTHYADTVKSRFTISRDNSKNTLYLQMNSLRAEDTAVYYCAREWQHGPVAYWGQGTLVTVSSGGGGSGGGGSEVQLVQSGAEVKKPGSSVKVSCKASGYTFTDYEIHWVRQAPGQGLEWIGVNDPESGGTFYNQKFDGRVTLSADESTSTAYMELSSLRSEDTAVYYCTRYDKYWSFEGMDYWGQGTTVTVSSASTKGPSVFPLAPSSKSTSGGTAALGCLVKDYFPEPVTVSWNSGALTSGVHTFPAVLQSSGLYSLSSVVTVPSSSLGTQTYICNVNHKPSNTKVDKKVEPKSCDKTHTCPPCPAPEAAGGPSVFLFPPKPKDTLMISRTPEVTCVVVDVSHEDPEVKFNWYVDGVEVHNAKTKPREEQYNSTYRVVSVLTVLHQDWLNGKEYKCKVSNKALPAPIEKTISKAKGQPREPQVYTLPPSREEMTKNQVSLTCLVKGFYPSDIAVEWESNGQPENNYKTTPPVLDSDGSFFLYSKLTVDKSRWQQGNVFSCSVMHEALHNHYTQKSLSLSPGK
light: B9 light with R24K, A53T, R54L, K93R
notes: DVD-Ig; IgG1 234,235 mut, kappa; GS10 linkers; also called hMAK195-24-GS10-A11 DVD

EC50: 0.188 nM
B14: hMAK195-24-h10F7-A6.8 DVD-Ig (bispecific antibody, human IgG1, kappa, L234A L235A)
heavy: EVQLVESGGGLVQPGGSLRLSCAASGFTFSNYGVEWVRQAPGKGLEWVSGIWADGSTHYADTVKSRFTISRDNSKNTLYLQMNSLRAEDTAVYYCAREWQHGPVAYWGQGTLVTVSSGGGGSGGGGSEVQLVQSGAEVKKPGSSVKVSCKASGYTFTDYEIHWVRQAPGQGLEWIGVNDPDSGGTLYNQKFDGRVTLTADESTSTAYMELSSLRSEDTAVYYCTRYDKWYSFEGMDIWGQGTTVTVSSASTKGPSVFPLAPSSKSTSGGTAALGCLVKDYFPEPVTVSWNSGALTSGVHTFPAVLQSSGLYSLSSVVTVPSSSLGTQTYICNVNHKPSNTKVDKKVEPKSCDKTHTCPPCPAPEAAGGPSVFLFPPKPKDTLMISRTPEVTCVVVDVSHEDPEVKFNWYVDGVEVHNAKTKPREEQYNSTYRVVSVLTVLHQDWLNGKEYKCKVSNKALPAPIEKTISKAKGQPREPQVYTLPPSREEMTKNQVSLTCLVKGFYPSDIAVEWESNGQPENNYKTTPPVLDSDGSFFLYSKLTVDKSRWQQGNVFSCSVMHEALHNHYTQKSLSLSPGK
light: B16 light with S144Q, S146I, I147R, A160S, E170D, F188Y, H206R, L208V, S210N, D213G
notes: DVD-Ig; IgG1 234,235 mut, kappa; GS10 linkers; also called hMAK195-24-GS10-A6 DVD
